Starred links: 1 amine or outer side, 2 acyl side, 3 side chain; linkers in the order of their positions; H or OH if unused. Positions of bridges follow the written chain, without caps; N, C: chain ends. Non-standard residues stand in square brackets, D forms with d. KCOmeglumine = N6-(methyl-((2S,3R,4R,5R)-2,3,4,5,6-pentahydroxyhexyl)carbamoyl)-L-lysine, CN(C[C@H](O)[C@@H](O)[C@H](O)[C@H](O)CO)C(=O)NCCCC[C@H](N[*:1])C(=O)[*:2]; KCOpipzaa = N6-(4-(carboxymethyl)piperazine-1-carbonyl)-L-lysine, O=C(NCCCC[C@H](N[*:1])C(=O)[*:2])N1CCN(CC(=O)[*:3])CC1; OCOmPEG10000 = methoxypolyethyleneglycol (10000) carbonate on Lys NZ; Trp(7-aza) = N[C@@H](Cc1c[nH]c2ncccc12)C(=O)O; 1Nal = N[C@@H](Cc1cccc2ccccc12)C(=O)O; Gly(NCH2CH2Ph) = O=C(O)CNCCc1ccccc1; 4Pal = N[C@@H](Cc1ccncc1)C(=O)O
B1: TGFb1_021 (peptide)
peptide: {CH2CO}-F[1Nal]VVNV[4Pal]DE[Gly(NCH2CH2Ph)]V[1Nal]YH[KCOpipzaa]CG-NH2
modifications: thioether N-16
SMILES: CC(C)[C@@H]1NC(=O)CN(CCc2ccccc2)C(=O)[C@H](CCC(=O)O)NC(=O)[C@H](CC(=O)O)NC(=O)[C@H](Cc2ccncc2)NC(=O)[C@H](C(C)C)NC(=O)[C@H](CC(N)=O)NC(=O)[C@H](C(C)C)NC(=O)[C@H](C(C)C)NC(=O)[C@H](Cc2cccc3ccccc23)NC(=O)[C@H](Cc2ccccc2)NC(=O)CSC[C@@H](C(=O)NCC(N)=O)NC(=O)[C@H](CCCCNC(=O)N2CCN(CC(=O)O)CC2)NC(=O)[C@H](Cc2c[nH]cn2)NC(=O)[C@H](Cc2ccc(O)cc2)NC(=O)[C@H](Cc2cccc3ccccc23)NC1=O
notes: cyclic peptide; C-terminal G is a linker
B2: TGFb1_027 (peptide)
peptide: {CH2CO}-F[1Nal]VVNV[4Pal]DD[Gly(NCH2CH2Ph)]V[1Nal]YHECG-NH2
modifications: thioether N-16
SMILES: CC(C)[C@@H]1NC(=O)CN(CCc2ccccc2)C(=O)[C@H](CC(=O)O)NC(=O)[C@H](CC(=O)O)NC(=O)[C@H](Cc2ccncc2)NC(=O)[C@H](C(C)C)NC(=O)[C@H](CC(N)=O)NC(=O)[C@H](C(C)C)NC(=O)[C@H](C(C)C)NC(=O)[C@H](Cc2cccc3ccccc23)NC(=O)[C@H](Cc2ccccc2)NC(=O)CSC[C@@H](C(=O)NCC(N)=O)NC(=O)[C@H](CCC(=O)O)NC(=O)[C@H](Cc2c[nH]cn2)NC(=O)[C@H](Cc2ccc(O)cc2)NC(=O)[C@H](Cc2cccc3ccccc23)NC1=O
notes: as for B1
B3: TGFb1_016 (peptide)
peptide: {CH2CO}-F[1Nal]VVNV[4Pal]DD[Gly(NCH2CH2Ph)]V[1Nal]YH[KCOmeglumine]CG-NH2
modifications: thioether N-16
SMILES: CC(C)[C@@H]1NC(=O)CN(CCc2ccccc2)C(=O)[C@H](CC(=O)O)NC(=O)[C@H](CC(=O)O)NC(=O)[C@H](Cc2ccncc2)NC(=O)[C@H](C(C)C)NC(=O)[C@H](CC(N)=O)NC(=O)[C@H](C(C)C)NC(=O)[C@H](C(C)C)NC(=O)[C@H](Cc2cccc3ccccc23)NC(=O)[C@H](Cc2ccccc2)NC(=O)CSC[C@@H](C(=O)NCC(N)=O)NC(=O)[C@H](CCCCNC(=O)N(C)C[C@H](O)[C@@H](O)[C@H](O)[C@H](O)CO)NC(=O)[C@H](Cc2c[nH]cn2)NC(=O)[C@H](Cc2ccc(O)cc2)NC(=O)[C@H](Cc2cccc3ccccc23)NC1=O
notes: as for B1
B4: TGFb1_017 (peptide)
peptide: {CH2CO}-F[Trp(7-aza)]VVNV[4Pal]D[KCOpipzaa][Gly(NCH2CH2Ph)]V[1Nal]YHVCG-NH2
modifications: thioether N-16
SMILES: CC(C)[C@@H]1NC(=O)CN(CCc2ccccc2)C(=O)[C@H](CCCCNC(=O)N2CCN(CC(=O)O)CC2)NC(=O)[C@H](CC(=O)O)NC(=O)[C@H](Cc2ccncc2)NC(=O)[C@H](C(C)C)NC(=O)[C@H](CC(N)=O)NC(=O)[C@H](C(C)C)NC(=O)[C@H](C(C)C)NC(=O)[C@H](Cc2c[nH]c3ncccc23)NC(=O)[C@H](Cc2ccccc2)NC(=O)CSC[C@@H](C(=O)NCC(N)=O)NC(=O)[C@H](C(C)C)NC(=O)[C@H](Cc2c[nH]cn2)NC(=O)[C@H](Cc2ccc(O)cc2)NC(=O)[C@H](Cc2cccc3ccccc23)NC1=O
notes: as for B1
B5: TGFb1_018 (peptide)
peptide: {CH2CO}-F[Trp(7-aza)]VVNV[4Pal]D[KCOmeglumine][Gly(NCH2CH2Ph)]V[1Nal]YHVCG-NH2
modifications: thioether N-16
SMILES: CC(C)[C@@H]1NC(=O)CN(CCc2ccccc2)C(=O)[C@H](CCCCNC(=O)N(C)C[C@H](O)[C@@H](O)[C@H](O)[C@H](O)CO)NC(=O)[C@H](CC(=O)O)NC(=O)[C@H](Cc2ccncc2)NC(=O)[C@H](C(C)C)NC(=O)[C@H](CC(N)=O)NC(=O)[C@H](C(C)C)NC(=O)[C@H](C(C)C)NC(=O)[C@H](Cc2c[nH]c3ncccc23)NC(=O)[C@H](Cc2ccccc2)NC(=O)CSC[C@@H](C(=O)NCC(N)=O)NC(=O)[C@H](C(C)C)NC(=O)[C@H](Cc2c[nH]cn2)NC(=O)[C@H](Cc2ccc(O)cc2)NC(=O)[C@H](Cc2cccc3ccccc23)NC1=O
notes: as for B1
B6: TGFb1_028 (peptide)
peptide: {CH2CO}-F[1Nal]V[KCOmeglumine]NV[4Pal]DD[Gly(NCH2CH2Ph)]V[1Nal]YHECG-NH2
modifications: thioether N-16
SMILES: CC(C)[C@@H]1NC(=O)CN(CCc2ccccc2)C(=O)[C@H](CC(=O)O)NC(=O)[C@H](CC(=O)O)NC(=O)[C@H](Cc2ccncc2)NC(=O)[C@H](C(C)C)NC(=O)[C@H](CC(N)=O)NC(=O)[C@H](CCCCNC(=O)N(C)C[C@H](O)[C@@H](O)[C@H](O)[C@H](O)CO)NC(=O)[C@H](C(C)C)NC(=O)[C@H](Cc2cccc3ccccc23)NC(=O)[C@H](Cc2ccccc2)NC(=O)CSC[C@@H](C(=O)NCC(N)=O)NC(=O)[C@H](CCC(=O)O)NC(=O)[C@H](Cc2c[nH]cn2)NC(=O)[C@H](Cc2ccc(O)cc2)NC(=O)[C@H](Cc2cccc3ccccc23)NC1=O
notes: as for B1
B7: TGFb1_029 (peptide)
peptide: {CH2CO}-F[1Nal]V[KCOmeglumine]NV[4Pal]DE[Gly(NCH2CH2Ph)]V[1Nal]YHECG-NH2
modifications: thioether N-16
SMILES: CC(C)[C@@H]1NC(=O)CN(CCc2ccccc2)C(=O)[C@H](CCC(=O)O)NC(=O)[C@H](CC(=O)O)NC(=O)[C@H](Cc2ccncc2)NC(=O)[C@H](C(C)C)NC(=O)[C@H](CC(N)=O)NC(=O)[C@H](CCCCNC(=O)N(C)C[C@H](O)[C@@H](O)[C@H](O)[C@H](O)CO)NC(=O)[C@H](C(C)C)NC(=O)[C@H](Cc2cccc3ccccc23)NC(=O)[C@H](Cc2ccccc2)NC(=O)CSC[C@@H](C(=O)NCC(N)=O)NC(=O)[C@H](CCC(=O)O)NC(=O)[C@H](Cc2c[nH]cn2)NC(=O)[C@H](Cc2ccc(O)cc2)NC(=O)[C@H](Cc2cccc3ccccc23)NC1=O
notes: as for B1
B8: TGFb1_032 (peptide)
peptide: {CH2CO}-F[1Nal]VVNV[4Pal]DD[Gly(NCH2CH2Ph)]V[1Nal]YH[KCOpipzaa]CGK(OCOmPEG10000)-NH2
modifications: thioether N-16
notes: cyclic peptide; linker G K(OCOmPEG10000) at the C-terminus

target: T1, recombinant human TGF-β1 (R&D systems) (human, UniProt P01137 279-390); assay: SPR, TGF-β1 immobilised, single cycle kinetics
T1 construct: Bought protein; immobilised on a CM3 chip (SPR) or on Dynabeads (ELISA), added to cells in the SBE reporter assay; also called TGF-β1 beads
Method: Subsequently, 50 μL of 60 mM EDC solution (Global Life Science Technologies Japan Co., Ltd.) and 50 μL of 650 mM NHS solution (Global Life Science Technologies Japan Co., Ltd.) were mixed. Next, the reaction was carried out at a flow rate of 10 μL/min for 420 seconds. Then, 150 μL of 0.2 μM TGF-β solution diluted in 10 mM acetic acid solution (pH 5.0) was prepared and reacted at a flow rate of 10 μL/min for 420 seconds to immobilize TGF-β on the CM3 sensor chip. TGF-β was human-derived TGF-β1 or β2 (recombinant human TGF-β1, 2) and was obtained from R&D systems. After immobilization, capping was performed by reacting with 1.0 M ethanolamine aqueous solution (Global Life Science Technologies Japan Co., Ltd.) at a flow rate of […] for 420 seconds.
A liquid prepared by dissolving each peptide at 10 mM in DMSO solution was diluted with running buffer to prepare a peptide-dissolved solution at a final concentration of 10 μM. Subsequently, 50 nM, 25 nM, 12.5 nM, 5 nM, and 2.5 nM peptide solutions were prepared. Using the above samples, the kinetics of each peptide against TGF-β was obtained by SPR measurement.
The kinetics evaluation model was Single Cycle Kinetics, and curve fitting was performed using Biacore T200 Evaluation Software Version 3.0 (Global Life Science Technologies Japan Co., Ltd.). The binding of various peptides to TGF-β was evaluated by performing least-squares curve fitting on the obtained sensorgram to calculate the KD value.

T1 sequence (P01137 279-390 limits assumed): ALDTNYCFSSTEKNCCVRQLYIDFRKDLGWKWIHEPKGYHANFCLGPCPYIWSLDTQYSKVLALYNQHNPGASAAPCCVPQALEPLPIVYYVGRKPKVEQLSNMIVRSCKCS

Kd | Binder
1.37 nM | B1
1.11 nM | B2
0.97 nM | B3
1.07 nM | B4
1.42 nM | B5
1.31 nM | B6
0.94 nM | B7
3.08 nM | B8

target: T1, recombinant human TGF-β1 (R&D systems); assay: cell-based or functional assay

SBE reporter % inhibition, peptide 0.062 nM | SBE reporter % inhibition, peptide 0.185 nM | SBE reporter % inhibition, peptide 0.56 nM | SBE reporter % inhibition, peptide 1.7 nM | SBE reporter % inhibition, peptide 5.0 nM | SBE reporter % inhibition, peptide 15.0 nM | Binder
10.2% | 26.9% | 58.9% | 87.8% | 97.1% | 98.8% | B1
2.53% | 9.14% | 28.4% | 59.4% | 84.9% | 95.5% | B2
0.94% | 6.17% | 20.4% | 47.6% | 73.9% | 91.7% | B6
12% | 16.9% | 32.4% | 63.7% | 85.8% | 96.8% | B7
2.67% | 7.18% | 1.11% | 4.77% | 54% | 91.3% | B8

target: T1, recombinant human TGF-β1 (R&D systems); assay: cell-based or functional assay; remark: another data set of the same source

SBE reporter % inhibition, peptide 0.075 nM | SBE reporter % inhibition, peptide 0.75 nM | SBE reporter % inhibition, peptide 7.5 nM | SBE reporter % inhibition, peptide 75.0 nM | Binder
6.1% | 61% | 97.6% | 100% | B3
21.7% | 60.2% | 97.2% | 100% | B4
22.2% | 61% | 97.6% | 99.9% | B5
